Results as given in patent US20210379147A1, “METHOD AND SYSTEM FOR TREATING CANCER UTILIZING TINAGL1” (The Trustees of Princeton University, priority 2018, published 2021).

How the values were obtained:
[1] = tested on: LM2 cells; assay: Experimental lung metastasis after intravenous injection of LM2 cells, BLI and nodule count; format: in vivo, NSG mice
Method: FIG. 6 is a graph of lung metastasis burden measured by BLI every week, for NSG mice under one of three treatment regimens: 1) PBS immediately following injection (510), 2) PBS for the first two weeks followed by r-Tinagl1 treatment (520), and 3) r-Tinagl1 immediately after injection (530).
Referring to FIG. 6, to further evaluate the therapeutic potential of r-Tinagl1 treatment during metastasis, LM2 cells were injected intravenously to generate lung metastasis, and the mice were separated into three distinct treatment groups: 1) PBS immediately following injection (510), 2) PBS for the first two weeks followed by r-Tinagl1 treatment (520), and 3) r-Tinagl1 immediately after injection (530).
(§1) For xenograft studies, 8-weeks immunocompromised NOD Scid Gamma (NSG) or immunocompetent FVB females were used. Cells were suspended in 10 μl of PBS for mammary gland injection (MFP), or were suspended in 100 μl of PBS for intravenous injection. For human patient-derived xenograft (PDX, HCL001, kindly provided by Dr. Alana Welm) study, we followed the standard protocol for PDX transplantation, maintenance and digestion of the tumors (DeRose et al., 2011). 2×10^4 cells were suspended in 10 μl of PBS and subjected to MFP injection. For recombinant Tinagl1 (r-Tinagl1), ATN-161, Erlotinib treatments, the mice were injected with 30 μg/mouse, 30 μg/mouse, and 100 mg/kg respectively twice per week via tail-vein. Primary tumors were quantified once per week via caliper measurement. All cell lines used for lung metastasis experiments were stably labeled with a firefly luciferase expressing vector and were monitored by weekly bioluminescent imaging (BLI). At protocol-defined endpoints, lungs were dissected and fixed in bouin's solution and the metastatic lesions were counted.

[2] = target: T1, EGFR extracellular domain recombinant protein (Homo sapiens, UniProt P00533); assay: IP between recombinant Tinagl1 and recombinant His-tagged EGFR protein; format: binding; details: 5 μg each protein in PBS, IP with His antibody
T1 construct: EGFR extracellular domain recombinant protein was purchased from Novoprotein (CI61); purchased Novoprotein CI61
Method: FIG. 13B is an image of a WB assay where 5 μg each of recombinant His-tagged EGFR protein and recombinant Tinagl1 protein were added into 1.5 ml of PBS. 100 μl of combined solution was transferred to a new tube and served as input, and the rest was split into two tubes and IP with 2 μg of IgG or His antibody respectively; the IP samples were washed with PBS and analyzed with WB.
Immunoprecipitation (IP) and western blotting (WB) analysis. For an IP experiment, cells were collected in 1.5 ml EP tube when they reached to 100% confluency in 10 or 15 cm dish as indicated. 1 ml of IP lysis buffer (20 mM Tris pH7.4, 0.15 M NaCl, 1 mM EDTA, 1 mM EGTA, 1% Tx-100) with complete protease inhibitor cocktail (Roche, 14493900) was added and put on ice for 20 min. Meanwhile, culture media was 100× concentrated and mixed with the cell lysates. The samples were centrifuged, 100 μl of the supernatant was transferred to a new tube as input, and the rest was incubated with 2 μg of IgG, anti-HA, anti-Myc, anti-Integrin subunit β1, anti-Integrin subunit α5 or anti-EGFR (as indicated in each experiment) overnight at 4° C. (recombinant proteins may be added at this step as indicated in each experiment). 30 μL of protein A/G agarose beads (Santa Cruz, sc-2003) was then added in each sample for another 2 hours at 4° C. the next day. […] The IP samples were washed with PBS and analyzed with WB. […]

[3] = target: T2, Tinagl1-EGFR interaction (Homo sapiens, UniProt P00533); assay: Competition IP for Tinagl1-HA / GFP-EGFR interaction in HEK293T lysate; format: binding
T2 construct: host or cells: HEK293T
Method: FIG. 13C is an image of IP and WB assays where HEK293T cells co-expressing Tinagl1-HA and GFP-EGFR were lysed and divided into multiple groups, then PBS or indicated amount of proteins was added into each group, then IP followed by WB assays were performed.
FIG. 13D is a graph quantifying the ability of the indicated protein to compete with Tinagl1-EGFR interaction, by measuring GFP-EGFR level in the groups from FIG. 13C.
Whether Tinagl1 inhibits EGFR activation in a similar manner was tested. […] Whether Tinagl1 and EGF compete with each other to interact with EGFR was tested.

[4] = tested on: SUM159-M1a; assay: SUM159-M1a orthotopic tumors, single or combined agent treatment; format: in vivo, NSG female mice; details: SUM159-M1a model
Method: FIG. 17D is an image of WB analyses where NSG female mice were injected with 10^4 M1a cells by MFP injection, and treated with the indicated reagents twice per week when tumors reached to 2 mm in diameter, then after 5 weeks of the treatments, the primary tumors of each group were collected and activation of EGFR and FAK in primary tumor of each group was tested by WB.
FIG. 17E is a graph illustrating tumor volumes of each treatment group from FIG. 17D.
as §1, with “For recombinant Tinagl1 (r-Tinagl1), ATN-161, Erlotinib treatments, the mice were injected with 30 μg/mouse, 30 μg/mouse, and 100 mg/kg respectively twice per week via tail-vein.” left out

B1: r-Tinagl1: full length recombinant human Tinagl1 with 6×His tag at the C-terminus [SEQ ID NO.: 24], expressed in HEK293T cells (protein, listed as Homo sapiens)
chain: MWRCPLGLLLLLPLAGHLALGAQQGRGRRELAPGLHLRGIRDAGGRYCQEQDLCCRGRADDCALPYLGAICYCDLFCNRTVSDCCPDFWDFCLGVPPPFPPIQGCMHGGRIYPVLGTYWDNCNRCTCQENRQWQCDQEPCLVDPDMIKAINQGNYGWQAGNHSAFWGMTLDEGIRYRLGTIRPSSSVMNMHEIYTVLNPGEVLPTAFEASEKWPNLIHEPLDQGNCAGSWAFSTAAVASDRVSIHSLGHMTPVLSPQNLLSCDTHQQQGCRGGRLDGAWWFLRRRGVVSDHCYPFSGRERDEAGPAPPCMMHSRAMGRGKRQATAHCPNSYVNNNDIYQVTPVYRLGSNDKEIMKELMENGPVQALMEVHEDFFLYKGGIYSHTPVSLGRPERYRRHGTHSVKITGWGEETLPDGRTLKYWTAANSWGPAWGERGHFRIVRGVNECDIESFVLGVWGRVGMEDMGHHVDHHHHHH
modifications: C-terminal 6xHis tag
metastatic growth (BLI) ([1]; PBS for the first two weeks followed by r-Tinagl1 treatment): dramatically decreased metastatic growth | number of lung metastasis nodules ([1]; both r-Tinagl1 treatment groups, end of experiment): significantly reduced number of lung metastasis nodules | metastatic growth (BLI) ([1]; r-Tinagl1 immediately after injection (continuous)): significantly reduced metastatic growth | direct interaction with EGFR [2]: confirmed the direct interaction | competition with Tinagl1-HA to interact with EGFR [3]: competed | lung metastasis [4]: stronger effect than single treatment of Erlotinib
